Data: patent publication US20150160214A1, “Quantitation of Cellular Adhesion Dynamics Across Immobilized Receptors Under Rheological Shear Flow” (Mayo Foundation for Medical Education and Research, priority 2013, published 2015)

Experiments:
[1] = GdnHCl- and urea-induced unfolding at 25° C. by circular dichroism (Example 2); assay type: physicochemical; conditions: CD
Experimental: The thermodynamic stability of A1 and of RCAM A1 was determined from GdnHCl and urea induced unfolding measured via CD and FL at 25° Celsius (FIG. 14). […] Complete unfolding of A1 and of RCAM A1 occurs in GdnHCl but not in urea. However, in presence of urea, a small expansion of RCAM A1 compared to A1 in its intermediate state is observed.
Urea and GdnHCl induced unfolding of A1 and of RCAM A1 at 25° Celsius was monitored via CD at 222 nm on an Aviv Biomedical Model 420C circular dichroism spectrometer. A 1 mm quartz cuvette and protein concentrations of 5 or 10 μM were used. Samples were equilibrated in their urea or GdnHCl containing buffer at 25° Celsius overnight. CD-signal was averaged for 5 to 10 min using an integration time of 1 s. CD-spectra were measured at 20° Celsius using 0.1 or 1 mm quartz cells with a step width of 1 nm between 190 and 260 nm with an integration time of 20 s and a bandwidth of 1 nm. CD-spectra in the near UV range (260-360 nm) were recorded using a 5 cm quartz cell with a 120 s integration time. Transition curves and protein spectra were corrected for the CD Signal of the corresponding buffer.

platelet GPIbα = biological target: T1, platelet GPIbα (Homo sapiens, UniProt P07359); test: Platelet adhesion to surface captured disulfide-intact A1 and RCAM A1 under shear flow (Example 2); assay type: cell-based
T1 construct: endogenous in cells; host or cells: platelets in citrated whole blood of normal healthy volunteer donors
Experimental: The interaction of disulfide-intact A1 and of RCAM A1 with platelets was studied by immobilizing the proteins via the 6×His-Tag on Cellix biochips in which the internal channel surface was coated with a Cu2+ chelating chemistry. A 5 μM concentration of protein was immobilized in the biochip and citrated whole blood was perfused at a shear rate of 800 s−1 (FIG. 11B). This perfusion was followed by TBS buffer and after red blood cells cleared the channel, the shear was decremented to 100 s−1 or incremented to 9000 s−1 every two minutes at logarithmic intervals. Surface bound platelets were allowed to equilibrate at a given shear rate for 50 s and a 60 s video at 24 frames per second was recorded and analyzed as described in the methods. The internal channel surface lacking immobilized A1 domain was completely inert to platelets.
At each shear rate, platelet mean pause times and mean translocation velocities were calculated from the X-Y trajectories of moving platelets as described in the methods. Approximately 1000 platelet trajectories were analyzed at each shear rate (FIGS. 11B to 11D). The mean pause times were also calculated from the pause time survival fraction obtained from the cumulative integral of the pause time distribution (FIG. 11B) (Thomas:2006). The survival fraction exponentially decreases with faster decay rates as shear increases. Fitting the survival fraction with a bi-exponential decay function results in the apparent rate constants and amplitudes as a function of shear rate (FIG. 11C).
The determination and analysis of platelet pause times and instantaneous translocation velocities over surface captured A1 and RCAM A1 was performed as previously described (Tischer:2013). Here, the inventor used the Cellix Mims Evo syringe pump controlled by VenaFluxAssay (www.cellixltd.com). Vena8™ CGS biochips were custom designed with 800 μm width by 80 μm height microchannels bonded to glass slides with a Cu^2+ chelated PEG surface serviced by Microsurfaces Inc. (www.proteinslides.com/histag.html) to which the A1 and RCAM A1 in TBS were captured by the 6×His-Tag at a total concentration of 5 μM. Citrated whole blood was obtained from the informed consent of healthy volunteer donors with approval from the Mayo Clinic Institutional Review Board and 100 μL was perfused over the surface captured A1 domains at […]. The shear was increased or decreased in a stepwise manner to measure the dynamics of platelet adhesion at high and low shear. After allowing the flow chamber to equilibrate for 50 s at each shear rate, 1 min movies were recorded at 24 frames per second in phase contrast at 200× magnification with 2×2 pixel binning on a Zeiss AxioCam Mrm camera (6.45 μm/px) attached to a Zeiss Axio Observer.D1 inverted microscope. Tracking analysis was performed using MediaCybernetics ImagePro® Premier (www.mediacy.com/index.aspx?page=IP\_Premier) The distance travelled in the direction of flow was calculated from the coordinate data for each platelet as a function of time using √{square root over ((xt−x0)^2)}, where x0 is the coordinates of a platelet on the first frame of the movie and xt is the coordinate on subsequent frames of the movie. These trajectories were differentiated into instantaneous velocities using a Savitzky-Golay algorithm (Savitzky:1964) with a five data point window size and a second order polynomial implemented into a Mathematica (www.wolfram.com/mathematica) notebook written in our lab. Trajectories were retained for statistical analysis if the platelet was present for ≧1 s and travelled a total distance greater than 1 Distance travelled in pixels (px) was converted to (μm) using 6.45 μm/px*2/200=0.0645 μm/px. Pause times were determined by the amount of time (sec) a platelets velocity was 0±4 px/s≅0±0.23 μm/s, within the noise. Data are reported as mean velocities and pause times attained by individual platelets averaged over all platelets analyzed. […]

[2] = Irreversible thermal denaturation by CD, intrinsic fluorescence and ANS fluorescence (Example 2); assay type: physicochemical; conditions: 2° Celsius/min
Experimental: The unfolding of disulfide-intact A1 and RCAM A1 was also monitored via CD at 222 nm, intrinsic protein fluorescence at 280 nm/359 nm and ANS fluorescence at 350 nm/495 nm as a function of temperature.
CD thermalscans were recorded between 10 and 95° Celsius at 222 nm with a protein concentration of 1 μM in a 1 cm quartz cell under moderate stirring. Prior to each measurement protein samples were equilibrated at 10° Celsius for 10-15 min in order to obtain a stable baseline. The scanrate for all Thermalscans was 2° Celsius/min. The integration time for each data point was 20 s, the bandwidth 1 nm. All measured CD data were converted into mean molar ellipticities per amino acid residue.
Thermalscans monitoring protein fluorescence were recorded at an emission wavelength of 359 nm after excitation at 280 nm using a protein concentration of 2 μM in a 1 cm quartz cell under moderate stirring. ANS-Thermalscans were recorded at 495 nm after Excitation at 350 nm using 1 μM protein and 100 μM ANS. Prior to any performed thermalscan samples were equilibrated for 10-15 min. The scanrate was 2° Celsius/min. At each temperature between 10 or 20° Celsius and 95° Celsius relative fluorescence intensity was collected for 4 s and averaged.

- Shear rate at which platelets detach from the surface immobilized domain (platelet GPIbα; listed as A1): less than 300 s−1
- Shear rate at which platelets detach from the surface immobilized domain (platelet GPIbα; listed as disulfide-intact A1): ≤ 300 s⁻¹
- Mean platelet pause time (platelet GPIbα; shear rate 530 s−1): ~0.75 s
- Mean platelet pause time (platelet GPIbα; shear rate 1025 s−1): ~0.9 s
Substance: A1-1238: Recombinant human vWF A1 domain, amino acids Q1238-P1471, with N-terminal 6×His-Tag, disulfide intact
- cm, I ⇄ D ([1]; GdnHCl): 4.40 ± 0.02 M
- cm, N ⇄ I ([1]; GdnHCl): 0.819 ± 0.006 M
- m-value, I ⇄ D ([1]; GdnHCl): −6.66 ± 0.30 kJ/mol/M
- m-value, N ⇄ I ([1]; GdnHCl): −18.67 ± 0.76 kJ/mol/M
- ΔG^0, I ⇄ D ([1]; GdnHCl): 7.003 ± 0.315 kcal/mol
- ΔG^0, N ⇄ I ([1]; GdnHCl): 3.654 ± 0.151 kcal/mol
- cm, I ⇄ D ([1]; Urea): 10.03 ± 0.19 M
- cm, N ⇄ I ([1]; Urea): 2.85 ± 0.02 M
- m-value, I ⇄ D ([1]; Urea): −3.35 ± 0.62 kJ/mol/M
- m-value, N ⇄ I ([1]; Urea): −4.70 ± 0.17 kJ/mol/M
- ΔG^0, I ⇄ D ([1]; Urea): 8.03 ± 1.49 kcal/mol
- ΔG^0, N ⇄ I ([1]; Urea): 3.203 ± 0.117 kcal/mol
- T* ([2]; ANS Fluorescence): 64.4 °C
- ΔH* ([2]; ANS Fluorescence): 63.8 kcal/mol
- T* ([2]; Circular Dichroism): 65 °C
- ΔH* ([2]; Circular Dichroism): 65 kcal/mol
- T* ([2]; Intrinsic Fluorescence): 63 °C
- ΔH* ([2]; Intrinsic Fluorescence): 60.7 kcal/mol
